This passage reports Kd results from article PMC11726873.

The assay addresses PALB2 construct (UniProt Q86YC2). Description: ITC; BRCA1 (control 0.6 mM, 17 injections; modified 0.255 mM, 32 injections) titrated into PALB2 at 0.06 mM in the cell; 25 °C; 50 mM NaCl, 25 mM sodium phosphate, pH 6.5; single binding site model. (In general: ITC needs no label: the signal is the heat of the interaction.)
Chain of UniProt Q86YC2 (Q86YC2 whole entry): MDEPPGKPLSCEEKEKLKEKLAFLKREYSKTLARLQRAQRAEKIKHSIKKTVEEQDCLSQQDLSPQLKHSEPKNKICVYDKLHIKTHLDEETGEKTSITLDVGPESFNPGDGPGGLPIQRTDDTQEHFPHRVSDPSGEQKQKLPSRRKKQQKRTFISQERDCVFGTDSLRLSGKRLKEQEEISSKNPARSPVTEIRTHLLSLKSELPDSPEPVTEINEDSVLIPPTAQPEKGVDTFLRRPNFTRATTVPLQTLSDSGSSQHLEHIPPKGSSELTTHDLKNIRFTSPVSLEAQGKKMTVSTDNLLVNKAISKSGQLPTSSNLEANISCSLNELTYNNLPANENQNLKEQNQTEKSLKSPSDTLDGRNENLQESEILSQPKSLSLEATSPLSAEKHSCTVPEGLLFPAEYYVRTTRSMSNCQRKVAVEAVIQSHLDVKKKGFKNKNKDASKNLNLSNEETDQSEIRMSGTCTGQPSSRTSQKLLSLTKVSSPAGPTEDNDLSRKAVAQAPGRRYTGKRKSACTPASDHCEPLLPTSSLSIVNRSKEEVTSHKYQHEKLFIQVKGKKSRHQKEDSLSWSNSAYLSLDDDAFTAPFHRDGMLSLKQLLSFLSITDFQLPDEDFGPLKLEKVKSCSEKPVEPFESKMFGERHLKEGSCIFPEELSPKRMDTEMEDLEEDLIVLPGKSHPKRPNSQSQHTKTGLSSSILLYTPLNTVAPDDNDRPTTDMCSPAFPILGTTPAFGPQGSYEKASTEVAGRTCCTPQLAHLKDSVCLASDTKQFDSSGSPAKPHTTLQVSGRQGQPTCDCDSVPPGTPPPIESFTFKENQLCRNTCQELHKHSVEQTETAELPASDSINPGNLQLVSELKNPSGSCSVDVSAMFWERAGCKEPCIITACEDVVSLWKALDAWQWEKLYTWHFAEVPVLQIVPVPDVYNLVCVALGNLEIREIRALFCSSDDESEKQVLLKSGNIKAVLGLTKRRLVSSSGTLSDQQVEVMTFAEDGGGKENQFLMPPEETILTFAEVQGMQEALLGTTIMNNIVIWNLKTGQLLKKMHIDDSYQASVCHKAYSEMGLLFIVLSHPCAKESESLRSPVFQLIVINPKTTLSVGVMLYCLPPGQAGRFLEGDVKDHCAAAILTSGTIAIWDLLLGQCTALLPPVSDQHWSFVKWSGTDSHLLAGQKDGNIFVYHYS

B1: BRCA1 disordered PALB2-binding domain, residues 1377-1426, modified with dichlorotriazine 1 (indole-labeled) (domain or fragment)
chain: GPGSSVSEDCSGLSSQSDILTTQQRDTMQHNLIKLQQEMAELEAVLEQHGSQPS
modifications: a single 272 Da indole incorporation from dichlorotriazine 1; site not determined by MS/MS, the single lysine (residue 1406 in BRCA1) is the intended site
Regarding B1, the Kd (in general, the constant that tells how readily two partners part at equilibrium) is 3 µM.

B2: BRCA1 disordered PALB2-binding domain, residues 1377-1426, control (unmodified) preparation (domain or fragment)
chain: GPGSSVSEDCSGLSSQSDILTTQQRDTMQHNLIKLQQEMAELEAVLEQHGSQPS
Take B2: the Kd was 4.1 µM.
